Measurements reported in PMC5034880.

Biological target: T1, PGL-3 (1-633)-6xHis-mEGFP (ΔRGG) (Caenorhabditis elegans, UniProt G5EBV6 1-633)
T1 sequence: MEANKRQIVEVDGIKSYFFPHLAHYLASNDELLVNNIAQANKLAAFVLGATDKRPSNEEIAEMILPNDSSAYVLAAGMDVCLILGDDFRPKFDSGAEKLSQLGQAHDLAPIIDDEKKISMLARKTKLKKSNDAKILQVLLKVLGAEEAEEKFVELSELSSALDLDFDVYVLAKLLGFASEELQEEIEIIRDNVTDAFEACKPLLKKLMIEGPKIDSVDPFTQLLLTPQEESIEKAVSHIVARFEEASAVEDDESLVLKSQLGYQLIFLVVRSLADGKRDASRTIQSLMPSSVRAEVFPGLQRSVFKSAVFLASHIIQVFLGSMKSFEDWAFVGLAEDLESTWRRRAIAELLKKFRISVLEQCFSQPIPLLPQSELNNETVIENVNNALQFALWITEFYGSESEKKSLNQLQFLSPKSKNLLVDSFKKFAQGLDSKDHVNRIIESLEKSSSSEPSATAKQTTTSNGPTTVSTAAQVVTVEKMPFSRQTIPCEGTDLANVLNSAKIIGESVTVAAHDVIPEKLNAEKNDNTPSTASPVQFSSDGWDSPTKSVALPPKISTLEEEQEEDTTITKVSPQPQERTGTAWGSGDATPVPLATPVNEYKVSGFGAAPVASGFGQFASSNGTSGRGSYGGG
Test: filter binding

GUUGUUGUUGUUGUUGUUGUUGUUGUUGUUAAAAAAAAAA (ssRNA) [(GUU)10A10 RNA]
binding signal: > 60 fold weaker than full-length PGL-3
